According to paper PMC5389651:

These binders were tested against T1, Nop15 81-180 (Saccharomyces cerevisiae, UniProt P53927 81-180) (assay: fluorescence polarization; 150 mM NaCl; 50 mM HEPES pH 7.5, 150 mM NaCl (250 mM in one row), room temperature, 40 min, 9 nM RNA).
T1 sequence: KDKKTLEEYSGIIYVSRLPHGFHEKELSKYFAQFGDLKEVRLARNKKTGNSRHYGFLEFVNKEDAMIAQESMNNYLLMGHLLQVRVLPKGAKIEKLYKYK
For UGAGUGAUACUCUUUGGAGUUAACUUGAAAUUGCU (structured_RNA) [ITS2 26-60 WT], the Kd was 1050 ± 111 nM.

These binders were tested against T2, Nop15 81-220 (Saccharomyces cerevisiae, UniProt P53927 81-220) in the same assay as above.
T2 sequence: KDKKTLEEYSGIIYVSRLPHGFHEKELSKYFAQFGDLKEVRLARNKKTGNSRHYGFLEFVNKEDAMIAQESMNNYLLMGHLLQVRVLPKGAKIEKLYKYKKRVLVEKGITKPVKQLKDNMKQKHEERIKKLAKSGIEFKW
For UGAGUGAUACUCUUUGGAGUUAACUUGAAAUUGCU (structured_RNA) [ITS2 26-60 WT], the Kd was 35.4 ± 1.3 nM.
UGAGUGAUCAACUUUGGUUGUAACUUGAAAUUGCU (structured_RNA) [ITS2 26-60 upper] showed a Kd of 44.9 ± 4.3 nM.
In the case of UGAGUCUAACUCUUUGGAGUAUACUUGAAAUUGCU (structured_RNA) [ITS2 26-60 bulge], the Kd is reported as 73.6 ± 5.6 nM.
Binder UGAGUGAUACUCUUUGGAGUUAACUU (structured_RNA) [ITS2 26-51] has a Kd of 104 ± 3.6 nM.
In the case of UCUGUGAUACUCUUUGGAGUUAACUUGAAAUUGCU (structured_RNA) [ITS2 26-60 disrupted lower], the Kd is reported as 144 ± 16 nM.
UGAGUGAUCAUCUUUGGAGUUAACUUGAAAUUGCU (structured_RNA) [ITS2 26-60 disrupted upper] showed a Kd of 35.5 ± 3.2 nM.
Binder UGAGUGAUACUCUUUGGAGUAUCACUUGAAAUUGCU (structured_RNA) [ITS2 26-60 paired] has a Kd of 89 ± 8.9 nM.
For UGACAGAUACUCUUUGGAGUUAUGUUGAAAUUGCU (structured_RNA) [ITS2 26-60 lower1], the Kd was 52.1 ± 3.6 nM.
Work on UUUGUGAUACUCUUUGGAGUUAACAGGAAAUUGCU (structured_RNA) [ITS2 26-60 lower2] yielded a Kd of 39.3 ± 2.7 nM.

The binders below were run against T3, Nop15 (Saccharomyces cerevisiae, UniProt P53927 1-220) in the same assay as above.
T3 sequence: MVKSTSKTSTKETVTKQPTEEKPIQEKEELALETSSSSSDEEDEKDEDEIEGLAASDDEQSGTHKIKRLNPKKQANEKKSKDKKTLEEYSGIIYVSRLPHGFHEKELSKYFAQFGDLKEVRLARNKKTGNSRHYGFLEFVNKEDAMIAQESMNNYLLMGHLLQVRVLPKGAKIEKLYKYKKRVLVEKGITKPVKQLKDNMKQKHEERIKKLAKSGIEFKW
For UGAGUGAUACUCUUUGGAGUUAACUUGAAAUUGCU (structured_RNA) [ITS2 26-60 WT], the Kd was 293 ± 23 nM.

The binders below were run against T4, Nop15 81-191 (Saccharomyces cerevisiae, UniProt P53927 81-191) in the same assay as above.
T4 sequence: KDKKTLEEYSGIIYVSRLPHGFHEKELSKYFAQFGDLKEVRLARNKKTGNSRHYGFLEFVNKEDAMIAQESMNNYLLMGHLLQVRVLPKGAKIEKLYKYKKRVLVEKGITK
For UGAGUGAUACUCUUUGGAGUUAACUUGAAAUUGCU (structured_RNA) [ITS2 26-60 WT], the Kd was 209 ± 15 nM.
